This note sets out measurements from patent US20170137467A1 (CHROMOTEK, published 2017).

Square brackets hold non-standard residues; d marks the D form. GABA = NCCCC(=O)O

What all share (test): library pulldown, LC-MS of supernatant; ratio vs GFP-Nb control (0=captured, 1=not captured)
One assay addresses T1, BC2T R3F (human).
T1 construct: position 3 library (BC2TR3X), row F
T1 peptide: Ac-PDFKAAVSHWQQ-NH2
The text has this: (§1) In total, 12 different BC2T libraries displaying all 20 proteinogenic amino acids in one single position of the peptide were used in immunoprecipitation experiments. […] The direct comparison with the GFP-Nb made it possible to determine the quantitative degree of peptide capture without the need of labeled standards. […] The more peptide was captured the more the value approximates 0. It was not possible to discriminate between isoleucine (I) and leucine (L) peptide versions since these peptides are isobaric.
(§2) To investigate the binding specificity of the BC2T and derived mutants peptide libraries for each amino acid position of the sequence […] (SEQ ID NO:4) were synthesized with acetyl and amide groups located at the N-termini or C-termini respectively (Intavis). […] Incubations were performed in 300 μl PBS/0.01% CHAPS for 1 h on a HulaMixer (Life Technologies). Subsequent to a centrifugation step 10 μl supernatant were analyzed in a LC-MS procedure. Peptides were separated using an UltiMate3000 RSLCnano System (Thermo Scientific), composed of a C18 PepMap100μ-Precolumn (300 μm×5 mm; particle size: 5 μm; pore size: 100 Å—Thermo Scientific) and a C18 analytical column (Acclaim Rapid Separation LC (RSLC) Column: 150 mm×5 mm; particle size: 2.2 μm; pore size: 100 Å—Thermo Scientific). A step gradient was applied starting at 8% and ending after 20 min at 30% eluent B (80% acetonitrile, 20% H₂O, 0.1% formic acid).

The next assay addresses T2, BC2T D2C(Abu) (human, SMILES …).
T2 construct: position 2 library, row C(Abu) / C*
T2 peptide: Ac-P[GABA]RKAAVSHWQQ-NH2
Description: as §1, §2

Another assay deals with T3, BC2T K4T (human).
T3 construct: position 4 library, row T
T3 peptide: Ac-PDRTAAVSHWQQ-NH2
Description: as §1, §2

For the next assay, the target named is T4, BC2T D2H (human).
T4 construct: position 2 library, row H
T4 peptide: Ac-PHRKAAVSHWQQ-NH2
Description: as §1, §2

The target of the next assay is T5, BC2T V7Y (human).
T5 construct: position 7 library, row Y
T5 peptide: Ac-PDRKAAYSHWQQ-NH2
Description: as §1, §2

The target of another assay is T6, BC2T P1T (human).
T6 construct: position 1 library, row T
T6 peptide: Ac-TDRKAAVSHWQQ-NH2
Description: as §1, §2

The target of the next assay is T7, BC2T K4D (human).
T7 construct: position 4 library, row D
T7 peptide: Ac-PDRDAAVSHWQQ-NH2
Description: as §1, §2

The target of the next assay is T8, BC2T P1W (human).
T8 construct: position 1 library, row W
T8 peptide: Ac-WDRKAAVSHWQQ-NH2
Description: as §1, §2

The target of a further assay is T9, BC2T D2F (human).
T9 construct: position 2 library, row F
T9 peptide: Ac-PFRKAAVSHWQQ-NH2
Description: as §1, §2

The target in a further assay is T10, BC2T A6H (human).
T10 construct: position 6 library (BC2TA6X), row H
T10 peptide: Ac-PDRKAHVSHWQQ-NH2
Description: as §1, §2

The target in the next assay is T11, BC2T R3N (human).
T11 construct: position 3 library (BC2TR3X), row N
T11 peptide: Ac-PDNKAAVSHWQQ-NH2
Description: as §1, §2

The next assay addresses T12, BC2T D2P (human).
T12 construct: position 2 library, row P
T12 peptide: Ac-PPRKAAVSHWQQ-NH2
Description: as §1, §2

In another assay the target is T13, BC2T P1K (human).
T13 construct: position 1 library, row K
T13 peptide: Ac-KDRKAAVSHWQQ-NH2
Description: as §1, §2

The target in the next assay is T14, BC2T A5W (human).
T14 construct: position 5 library, row W
T14 peptide: Ac-PDRKWAVSHWQQ-NH2
Description: as §1, §2

For the next assay, the target named is T15, BC2T K4H (human).
T15 construct: position 4 library, row H
T15 peptide: Ac-PDRHAAVSHWQQ-NH2
Description: as §1, §2

The target of a further assay is T16, BC2T D2S (human).
T16 construct: position 2 library, row S
T16 peptide: Ac-PSRKAAVSHWQQ-NH2
Description: as §1, §2

The next assay concerns the target T17, BC2T R3T (human).
T17 construct: position 3 library (BC2TR3X), row T
T17 peptide: Ac-PDTKAAVSHWQQ-NH2
Description: as §1, §2

In another assay the target is T18, BC2T A6R (human).
T18 construct: position 6 library (BC2TA6X), row R
T18 peptide: Ac-PDRKARVSHWQQ-NH2
Description: as §1, §2

The target in a further assay is T19, BC2T D2E (human).
T19 construct: position 2 library, row E
T19 peptide: Ac-PERKAAVSHWQQ-NH2
Description: as §1, §2

In another assay the target is T20, BC2T A5Y (human).
T20 construct: position 5 library, row Y
T20 peptide: Ac-PDRKYAVSHWQQ-NH2
Description: as §1, §2

A further assay concerns the target T21, BC2T A6Q (human).
T21 construct: position 6 library (BC2TA6X), row Q
T21 peptide: Ac-PDRKAQVSHWQQ-NH2
Description: as §1, §2

The next assay addresses T22, BC2T V7S (human).
T22 construct: position 7 library, row S
T22 peptide: Ac-PDRKAASSHWQQ-NH2
Description: as §1, §2

B1: BC2 nanobody (BC2-Nb) (VHH)
VHH: QVQLVESGGGLVQPGGSLTLSCTASGFTLDHYDIGWFRQAPGKEREGVSCINNSDDDTYYADSVKGRFTIFMDNAKDTVYLQMNSLKPEDTAIYYCAEARGCKRGRYEYDFWGQGTQVTVSS
notes: immobilised on agarose/sepharose beads in this assay; also called BC2 nanotrap (immobilised form); not shown: C-terminal 6xHis-tag added by pHEN6 vector
On to B1, for which the ratio turned out to be 0.8 with BC2T R3F; 0.1 in the assay with BC2T D2C(Abu); 0.2 with BC2T K4T; 0.1 with BC2T D2H; 0.1 with BC2T V7Y; 0.5 with BC2T P1T. Besides, the ratio in the assay with BC2T K4D is 1; in the assay with BC2T P1W, 0.1; with BC2T D2F, 0.2; in the assay with BC2T A6H it was 1.1; in the assay with BC2T R3N, 0.7; in the assay with BC2T D2P it was 0.6. Also, the ratio with BC2T P1K was determined as 0.3; with BC2T A5W it was 0; with BC2T K4H, 0.1; with BC2T D2S, 0.1; with BC2T R3T, 0.3; with BC2T A6R it was 1.1. The ratio turned out to be 0.2 with BC2T D2E, 0.1 with BC2T A5Y, 1 in the assay with BC2T A6Q and 0.3 with BC2T V7S.

B2: BC2-NbR106S (VHH)
VHH: QVQLVESGGGLVQPGGSLTLSCTASGFTLDHYDIGWFRQAPGKEREGVSCINNSDDDTYYADSVKGRFTIFMDNAKDTVYLQMNSLKPEDTAIYYCAEARGCKRGSYEYDFWGQGTQVTVSS
notes: immobilised on beads in this assay; not shown: C-terminal 6xHis-tag added by pHEN6 vector
As to B2, the ratio with BC2T R3F came out at 1; with BC2T D2C(Abu), 0.3; with BC2T K4T, 0.7; with BC2T D2H, 0.2; with BC2T V7Y, 0.3; in the assay with BC2T P1T, 0.7. Besides, the ratio with BC2T K4D is 1; with BC2T P1W, 0.3; in the assay with BC2T D2F, 0.3; with BC2T A6H it was 0.9; with BC2T R3N, 1; with BC2T D2P it was 0.8. Also, the ratio is 0.5 with BC2T P1K; 0.1 with BC2T A5W; 0.3 with BC2T K4H; 0.3 with BC2T D2S; 0.8 with BC2T R3T; 0.7 with BC2T A6R. The ratio was determined as 0.4 in the assay with BC2T D2E, 0.2 with BC2T A5Y, 0.9 with BC2T A6Q and 0.4 with BC2T V7S.
